B1: mouse single-chain anti-hTfR antibody of Clone M11 (maltose binding protein fusion, E. coli lysate supernatant) (scFv, not shown: large carriers)
scFv: DYKDIVMTQSHKFMSTSVGDRVSITCKASQDVGTAVAWYQQKPGQSPKLLIYWASTRHTGVPDRFTGSGSGTDFTLTISNVQSEDLADYFCQQYSSYLTFGAGTKLELKRGGGGSGGGGSGGGGSGGGGSEVMLVESGGDLVKPGGSLKLSCAASGFTFSSYGMSWVRQTPDKRLEWVATISSGGSYTYYPDSVKGRFTISRDNAKNTLYLQMSSLKSEDTAMYYCALLRSDWYFDVWGAGTTVTVSS
notes: Tested in the screening ELISA as an MBP fusion in crude E. coli lysate supernatant and detected with an HRP-labelled anti-MBP antibody; The scFv is light chain, linker, heavy chain
B2: mouse single-chain anti-hTfR antibody of Clone M23 (maltose binding protein fusion, E. coli lysate supernatant) (scFv, not shown: large carriers)
scFv: DYKDIVITQSHKFMSTSVGDRVSITCKASQDVSTAVAWYQQKPGQSPKLLIYSASYRYTGVPDRFTGSGSGTDFTFTISSVQAEDLAVYYCQQHYSTPYTFGGGTKLEIKRGGGGSGGGGSGGGGSGGGGSQVQLQQSGAELVRPGASVTLSCKASGYTFTDYEMHWVKQTPVHGLEWIGAIDPETGGTAYNQKFKGKATLTADKSSSTAYMELRSLTSEDSAVYYCTGWGFDYWGQGTTLTVSS
notes: Tested in the screening ELISA as an MBP fusion in crude E. coli lysate supernatant and detected with an HRP-labelled anti-MBP antibody
B3: mouse single-chain anti-hTfR antibody of Clone M27 (maltose binding protein fusion, E. coli lysate supernatant) (scFv, not shown: large carriers)
scFv: DYKDIVMTQSHKFMSTSVGDRVSITCKASQDVGTAVAWYQQKPGQSPKLLIYWASTRHTGVPDRFTGSGSGTDFTLTISNVQSEDLADYFCQQYSSYPYTFGGGTKLEIKRGGGGSGGGGSGGGGSGGGGSQVQLQQPGSELVRPGASVKLSCKASGYTFTSYWMHWVKQRPGQGLEWIGNIYPGSGSTNYDEKFKSKATLTVDTSSSTAYMQLSSLTSEDSAVYYCTRGATALDYWGQGTTLTVSS
notes: Tested in the screening ELISA as an MBP fusion in crude E. coli lysate supernatant; also called Clone 27

Biological target: T1, recombinant human TfR (rhTfR) (Sino Biological) (human, UniProt P02786 89-760)
T1 construct: Bought protein, coated on 96-well plates at 5 ug/mL; also called human transferrin receptor
T1 sequence (P02786 89-760 limits assumed): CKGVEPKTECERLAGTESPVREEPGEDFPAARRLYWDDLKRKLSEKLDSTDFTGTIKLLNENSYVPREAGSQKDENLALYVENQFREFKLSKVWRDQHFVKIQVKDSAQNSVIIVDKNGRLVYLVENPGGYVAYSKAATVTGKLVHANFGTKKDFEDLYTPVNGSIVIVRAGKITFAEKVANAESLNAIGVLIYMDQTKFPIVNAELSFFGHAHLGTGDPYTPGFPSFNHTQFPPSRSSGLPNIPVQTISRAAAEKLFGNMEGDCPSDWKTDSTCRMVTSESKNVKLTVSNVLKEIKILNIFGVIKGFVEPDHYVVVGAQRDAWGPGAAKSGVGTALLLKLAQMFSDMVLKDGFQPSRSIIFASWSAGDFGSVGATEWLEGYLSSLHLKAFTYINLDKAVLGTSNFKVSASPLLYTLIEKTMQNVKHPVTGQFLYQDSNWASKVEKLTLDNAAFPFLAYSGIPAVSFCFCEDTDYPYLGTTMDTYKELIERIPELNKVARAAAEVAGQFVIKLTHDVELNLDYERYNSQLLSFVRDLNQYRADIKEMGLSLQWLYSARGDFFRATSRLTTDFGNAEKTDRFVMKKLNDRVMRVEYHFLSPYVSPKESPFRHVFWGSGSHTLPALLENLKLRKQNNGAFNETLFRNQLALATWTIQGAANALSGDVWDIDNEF
Test: ELISA, rhTfR coated on plate, MBP-scFv lysate supernatant, HRP-labelled anti-MBP detection, A450
Method: E. coli (JM109) was transformed respectively with the mouse and human single-chain anti-hTfR antibody cDNA libraries, and then disseminated on LB plates containing ampicillin (Amp), and cultured overnight at 37° C. On the following day, the colonies formed on the plates were collected one by one, with which Overnight Express™ Instant LB Medium (Novagen), which had been dispensed beforehand to 96-well plates, was inoculated. After the plates were shaken overnight at 37° C., a tenth amount of Popculture Reagent (Novagen) was added to lyse the cells, and following addition of an equal amount of TBS-T, the resulting mixture was centrifuged to collect the supernatant. This supernatant was used as a sample solution.
To each well of the 96-well plates was added 5 μg/mL of recombinant human TfR (rhTfR) (Sino Biological) or 50 μL of bovine gamma globulin (Bio-Rad, Inc.), and the plates were left undisturbed at 4° C. overnight. After removal of the solution, each well was washed once with 300 μL of TBS-T. Then, to each well was added 300 μL of 1% BSA solution, and the plates were left undisturbed for 30 minutes at room temperature. After removal of the solution, 100 μL of the above sample solution was added to each well, and the plates were left undisturbed for two hours at room temperature. After removal of the solution, each well was washed three times with 300 μL of TBS-T, and 50 μL of HRP-labelled anti MBP antibody (Novagen) was added, and the plates were left undisturbed for one hour at room temperature. After removal of the solution, each well was washed three times with 300 μL of TBS-T, then 50 μL of POD substrate solution (Nacalai Tesque, Inc.) was added, and a reaction was allowed to proceed for 10-15 minutes at room temperature. […] Three clones, M11, M23 and M27 were obtained as high affinity clones to rhTfR from the mouse single-chain anti-hTfR antibody cDNA library. A clone (B84) was obtained as a high affinity clone to rhTfR from the human single-chain anti-hTfR antibody cDNA library.

Binding result, binds:
B1, B2, B3

— US20160369001A1 (JCR PHARMACEUTICALS, published 2016)
